# Data published in IntAct's records for PubMed 19287395.
# B1: Serine/threonine-protein phosphatase 1 regulatory subunit 10 (Mus musculus), Q80W00 (parent)
# chain: MGSGPIDPKELLKGLDSFLTRDGEVKSVDGISKIFSLMKEARKMVSRCTYLNIILQTRAPEVLVKFIDVGGYKLLNNWLTYSKTTNNIPLLQQILLTLQHLPLTVDHLKQNNTAKLVKQLSKSSEDEELRKLASVLVSDWMAVIRSQSSTQPAEKDKKKRKEEGKSRTTLPERPLTEVKAETRAEEAPEKKKEKPKSLRTTAPSHAKFRSTGLELDTPSLVPVKKNSSTVVVSDKYNLKPIPLKRQSATAAPGDAAPPAEKKYKPLNTAPNTTKEIKVKIIPPQPMEGLGFLDALNSAPVPGIKIKKKKKVLSPTAAKPSPFEGKTSTEQSTAKPSSPEPAPPAEPMDTDRPGTPVPPVEVPELMDAASSEPGALDAKPVDSPGDPNQLTRKGRKRKTVTWPEEGKLREYFYFELDETERVNVNKIKDFGEAAKREILSDRHAFETARRLSHDNMEEKVPWVCPRPLVLPSPLVIPGSNSQERYIQAEREKGILQELFLNKESPHEPDPEPYEPIPPKLIPLDEECAMDETPYVETLEPGGSGGSPDGAGGSKLPPVLANLMGSMGAGKSPQGPGGGGINVQEILTSIMGSPNSHPSEELLKQPDYSDKLKQMLVPHGLLGPGPVANGFPPGGPGGPKGMQHFPPGPGGPMPGPHGGPGGPVGPRLLGPPPPSRGGDPFWDGPGDPMRGGPMRGGPGPAPGPYHRGRGGRGGNEPPPPPPFRGARGGRSGGGPPNGRGGPGGGGMVGGGGHRPHEGPGGSMGSGHRSHDGPGGNMGSGHRSHDGPGGNMGGSGGHRSHEGPGHGGPHGHRPHDVPSHRGHDHRGPPPHEHRGHDGHGGGGHRGHDGGHSHGGDMSNRPVCRHFMMKGNCRYENNCAFYHPGVNGPPLP
# B2: Telomeric repeat-binding factor 2 (Homo sapiens), Q15554 (parent)
# chain: MAAGAGTAGPASGPGVVRDPAASQPRKRPGREGGEGARRSDTMAGGGGSSDGSGRAAGRRASRSSGRARRGRHEPGLGGPAERGAGEARLEEAVNRWVLKFYFHEALRAFRGSRYGDFRQIRDIMQALLVRPLGKEHTVSRLLRVMQCLSRIEEGENLDCSFDMEAELTPLESAINVLEMIKTEFTLTEAVVESSRKLVKEAAVIICIKNKEFEKASKILKKHMSKDPTTQKLRNDLLNIIREKNLAHPVIQNFSYETFQQKMLRFLESHLDDAEPYLLTMAKKALKSESAASSTGKEDKQPAPGPVEKPPREPARQLRNPPTTIGMMTLKAAFKTLSGAQDSEAAFAKLDQKDLVLPTQALPASPALKNKRPRKDENESSAPADGEGGSELQPKNKRMTISRLVLEEDSQSTEPSAGLNSSQEAASAPPSKPTVLNQPLPGEKNPKVPKGKWNSSNGVEEKETWVEEDELFQVQAAPDEDSTTNITKKQKWTVEESEWVKAGVQKYGEGNWAAISKNYPFVNRTAVMIKDRWRTMKRLGMN
# partner: B1 chain
# B3: TERF1-interacting nuclear factor 2 (Homo sapiens), Q9BSI4 (parent)
# chain: MATPLVAGPAALRFAAAASWQVVRGRCVEHFPRVLEFLRSLRAVAPGLVRYRHHERLCMGLKAKVVVELILQGRPWAQVLKALNHHFPESGPIVRDPKATKQDLRKILEAQETFYQQVKQLSEAPVDLASKLQELEQEYGEPFLAAMEKLLFEYLCQLEKALPTPQAQQLQDVLSWMQPGVSITSSLAWRQYGVDMGWLLPECSVTDSVNLAEPMEQNPPQQQRLALHNPLPKAKPGTHLPQGPSSRTHPEPLAGRHFNLAPLGRRRVQSQWASTRGGHKERPTVMLFPFRNLGSPTQVISKPESKEEHAIYTADLAMGTRAASTGKSKSPCQTLGGRALKENPVDLPATEQKENCLDCYMDPLRLSLLPPRARKPVCPPSLCSSVITIGDLVLDSDEEENGQGEGKESLENYQKTKFDTLIPTLCEYLPPSGHGAIPVSSCDCRDSSRPL
# B4: Microcephalin (Homo sapiens), Q8NEM0 (parent)
# chain: MAAPILKDVVAYVEVWSSNGTENYSKTFTTQLVDMGAKVSKTFNKQVTHVIFKDGYQSTWDKAQKRGVKLVSVLWVEKCRTAGAHIDESLFPAANMNEHLSSLIKKKRKCMQPKDFNFKTPENDKRFQKKFEKMAKELQRQKTNLDDDVPILLFESNGSLIYTPTIEINSRHHSAMEKRLQEMKEKRENLSPTSSQMIQQSHDNPSNSLCEAPLNISRDTLCSDEYFAGGLHSSFDDLCGNSGCGNQERKLEGSINDIKSDVCISSLVLKANNIHSSPSFTHLDKSSPQKFLSNLSKEEINLQRNIAGKVVTPDQKQAAGMSQETFEEKYRLSPTLSSTKGHLLIHSRPRSSSVKRKRVSHGSHSPPKEKCKRKRSTRRSIMPRLQLCRSEDRLQHVAGPALEALSCGESSYDDYFSPDNLKERYSENLPPESQLPSSPAQLSCRSLSKKERTSIFEMSDFSCVGKKTRTVDITNFTAKTISSPRKTGNGEGRATSSCVTSAPEEALRCCRQAGKEDACPEGNGFSYTIEDPALPKGHDDDLTPLEGSLEEMKEAVGLKSTQNKGTTSKISNSSEGEAQSEHEPCFIVDCNMETSTEEKENLPGGYSGSVKNRPTRHDVLDDSCDGFKDLIKPHEELKKSGRGKKPTRTLVMTSMPSEKQNVVIQVVDKLKGFSIAPDVCETTTHVLSGKPLRTLNVLLGIARGCWVLSYDWVLWSLELGHWISEEPFELSHHFPAAPLCRSECHLSAGPYRGTLFADQPAMFVSPASSPPVAKLCELVHLCGGRVSQVPRQASIVIGPYSGKKKATVKYLSEKWVLDSITQHKVCAPENYLLSQ
# Variants of: B1
# Details: with terf2_human TERF2, Q15554
row,effect of a mutation on the interaction,Variant
1,disrupting interaction,Y236A;L238A

# Variants of: B2
# Details: with pp1ra_mouse Ppp1r10, Q80W00
row,effect of a mutation on the interaction,Variant
1,disrupting interaction strength,F162A

# Variants of: B3
# Details: with terf2_human TERF2, Q15554
row,effect of a mutation on the interaction,Variant
1,decreasing interaction,F258A;L260A

# Variants of: B4
# Details: with terf2_human TERF2, Q15554
row,effect of a mutation on the interaction,Variant
1,disrupting interaction,Y330A;L332A
